In this assay the target is human CCR5 (human, UniProt P51681 1-352). The assay can be described thus: cell-based or functional assay.
human CCR5, sequence (P51681 whole entry): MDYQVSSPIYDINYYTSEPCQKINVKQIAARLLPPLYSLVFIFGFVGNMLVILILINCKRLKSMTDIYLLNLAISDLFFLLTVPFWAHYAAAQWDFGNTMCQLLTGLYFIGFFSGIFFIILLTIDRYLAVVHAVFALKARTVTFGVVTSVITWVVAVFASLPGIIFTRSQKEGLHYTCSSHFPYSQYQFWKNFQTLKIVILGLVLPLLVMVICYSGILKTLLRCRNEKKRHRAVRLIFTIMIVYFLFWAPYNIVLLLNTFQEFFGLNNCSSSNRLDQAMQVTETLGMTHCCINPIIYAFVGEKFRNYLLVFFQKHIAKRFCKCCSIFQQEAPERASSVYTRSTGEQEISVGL

B1: AA-2320 (antibody)
chain 1: EVKLVESGGGLVKPGGSLKLSCAASGFTFSTYAMSWVRQTPEKRLEWVASISTGDNTYYTDSVRGRFTISRDNARNILYLQMSSLRSEDTAMYFCTRGRGDRGDLFGYWGQGTLVTVSS
chain 2: GGGGSGGGGSEVKLVESGGGLVKPGGSLKLSCAASGFTFSTYAMSWVRQTPEKRLEWVASISTGDNTYYTDSVRGRFTISRDNARNILYLQMSSLRSEDTAMYFCTRGRGDRGDLFGYWGQGTLVTVSSGGGGSGGGGSGGGGSDIVMSQSPSSLAVSVGEKVTMSCKSSQSLLYRGNQMNYLAWYQQKPGQSPKLLIYWASTRESGVPDRFTGSGSGTEFTLTISSVKAEDLTVYYCQQYYTYPRTFGGGTKLEIKR
chain 3: DIVMSQSPSSLAVSVGEKVTMSCKSSQSLLYRGNQMNYLAWYQQKPGQSPKLLIYWASTRESGVPDRFTGSGSGTEFTLTISSVKAEDLTVYYCQQYYTYPRTFGGGTKLEIKR
For B1, the “IC50, antiviral assay in PBMC (HIV-1 NLBal, p24 ELISA)” value was determined as 88 pM.

B2: AN-1000 (antibody, V domains shown)
VH: EVKLVESGGGLVKPGGSLKLSCAASGFTFSTYAMSWVRQTPEKRLEWVASISTGDNTYYTDSVRGRFTISRDNARNILYLQMSSLRSEDTAMYFCTRGRGDRGDLFGYWGQGTLVTVSS
VL: DIVMSQSPSSLAVSVGEKVTMSCKSSQSLLYRGNQMNYLAWYQQKPGQSPKLLIYWASTRESGVPDRFTGSGSGTEFTLTISSVKAEDLTVYYCQQYYTYPRTFGGGTKLEIKR
For the molecule B2, the “IC50, antiviral assay in PBMC (HIV-1 NLBal, p24 ELISA)” value turned out to be 988 pM.

(Values after patent WO2010028798A1 (dated 2010).)
